# Measurements reported in patent US20140242093A1, “METHODS AND COMPOSITIONS FOR MODULATING THE INNATE IMMUNE RESPONSE AND/OR MYOGENESIS IN A MAMMALIAN SUBJECT” (FRED HUTCHINSON CANCER RESEARCH CENTER, priority 2011, published 2014).
# B1: DUX4-s: short splice form of DUX4 (SEQ ID NO:112), keeps the double-homeobox domains, lacks the C-terminal activation domain (protein, listed as Homo sapiens)
# chain: MALPTPSDSTLPAEARGRGRRRRLVWTPSQSEALRACFERNPYPGIATRERLAQAIGIPEPRVQIWFQNERSRQLRQHRRESRPWPGRRGPPEGRRKRTAVTGSQTALLLRAFEKDRFPGIAAREELARETGLPESRIQIWFQNRRARHPGQGGRAPAQV
# Tested on: control human primary myoblasts
# Test: Expression microarray of primary myoblasts transduced with lentivirus carrying DUX4-fl, DUX4-s or GFP
# Method: Primary human myoblasts were collected and cultured as previously described (Snider et al., 2010). Primary myoblasts were maintained at or below 70% confluency for proliferation. For differentiation, cells were allowed to reach 95-100% confluency in growth medium. Once confluency was reached, the cells were changed to differentiation medium (F10 media supplemented with 1% horse serum, 10 μg/mL insulin, and 10 μg/mL transferrin, penicillin/streptomycin) and maintained for 4 days. Human RD cells were grown in DMEM in 10% bovine calf serum (Hyclone) and penicillin/streptomycin. The primary myoblasts were transduced with lentivirus carrying DUX-fl, DUX4- or GFP (MOI=15).
# Expression microarrays were performed on the transduced cells at 24 hours after transduction as follows. […] Samples were analyzed by Illumina Human Whole Genome microarrays. Probe intensities were corrected, normalized, and summarized by the Lumi package of Bioconductor (Du et al., 2008). Differentially expressed genes were identified by the LIMMA package of Bioconductor (Wettenhall and Smyth, 2004). Gene set enrichment analysis (GSEA) was performed using the Bioconductor GOstats package (Falcon and Gentleman, 2007).
molecule,measurement,setting,value
B1,C1orf55 expression fc,Refseq NM_152608.3,−0.3632
same,MLKL expression fc,"Refseq NM_152649.1, cultured human skeletal muscle",1.457
same,ZSCAN4 expression fc,Refseq NM_152677.1,0.04366
same,SAMD9L expression fc,"Refseq NM_152703.2, cultured human skeletal muscle",1.257
same,VWCE expression fc,"Refseq NM_152718.2, cultured human skeletal muscle",−0.1213
same,fc of D2HGDH (expression array),Refseq NM_152783.3,−0.3982
same,FAS fc,Refseq NM_152877.1,0.1452
same,APCDD1 expression fc,"Refseq NM_153000.3, cultured human skeletal muscle",−0.4301
same,PMP22 fc,Refseq NM_153321.1,0.2667
same,SLC2A14 expression fc,Refseq NM_153449.2,0.2472
same,CYBASC3 expression fc,"Refseq NM_153611.3, cultured human skeletal muscle",−0.4218
same,GPBAR1 expression fc,Refseq NM_170699.2,−0.1298
same,NLRX1 fc,Refseq NM_170722.1,−0.1409
same,fc of HSCB (expression array),Refseq NM_172002.3,0.1735
same,fc of ZNF650 (expression array),Refseq NM_172070.2,0.6904
same,fc of IL4I1 (expression array),Refseq NM_172374.1,1.769
same,KLF17 expression fc,Refseq NM_173484.3,0.08045
same,fc of RCOR2 (expression array),Refseq NM_173587.2,−0.1949
same,fc of DCBLD1 (expression array),Refseq NM_173674.1,1.594
same,WARS expression fc,"Refseq NM_173701.1, cultured human skeletal muscle",1.715
same,fc of C3orf38 (expression array),Refseq NM_173824.2,1.033
same,fc of UBR1 (expression array),Refseq NM_174916.1,1.111
same,fc of C4orf34 (expression array),Refseq NM_174921.1,0.6119
same,FRMD3 fc,Refseq NM_174938.3,−0.2907
same,MT1E expression fc,"Refseq NM_175617.3, cultured human skeletal muscle",0.1289
same,TXLNA fc,Refseq NM_175852.3,−0.1621
same,MT1M expression fc,"Refseq NM_176870.2, cultured human skeletal muscle",1.185
same,PPAP2A fc,Refseq NM_176895.1,0.545
same,CSE1L expression fc,Refseq NM_177436.1,0.07287
same,PPM1B expression fc,Refseq NM_177968.2,−0.0342
same,fc of STARD13 (expression array),Refseq NM_178006.1,−0.8963
same,RILPL1 fc,Refseq NM_178314.2,0.6233
same,HIF1A fc,Refseq NM_181054.1,0.4209
same,ID1 fc,Refseq NM_181353.1,0.7329
same,C1QTNF3 expression fc,Refseq NM_181435.4,−0.02264
same,PPP2R2B expression fc,Refseq NM_181677.1,−0.1091
same,PPP2R2C fc,Refseq NM_181876.2,−0.2308
same,BCL9L fc,Refseq NM_182557.2,0.7326
same,fc of IRF2BP2 (expression array),Refseq NM_182972.2,−0.806
same,fc of TRIM69 (expression array),Refseq NM_182985.3,0.2639
same,fc of TRIM55 (expression array),Refseq NM_184086.1,0.1967
same,RBM39 expression fc,Refseq NM_184234.1,0.263
same,INO80C expression fc,Refseq NM_194281.3,−0.1128
same,SPTY2D1 expression fc,Refseq NM_194285.2,−0.2916
same,fc of RNASE4 (expression array),Refseq NM_194431.1,−0.1107
same,BID fc,Refseq NM_197966.1,−0.1675
same,fc of MZF1 (expression array),Refseq NM_198055.1,0.05558
same,fc of ARSK (expression array),Refseq NM_198150.1,1.03
same,fc of SRC (expression array),Refseq NM_198291.1,0.0569
same,fc of APOOL (expression array),Refseq NM_198450.3,1.369
same,DENND2C expression fc,Refseq NM_198459.2,−0.2684
same,TPRX1 expression fc,Refseq NM_198479.2,−0.05019
same,AGRN expression fc,"Refseq NM_198576.2, cultured human skeletal muscle",0.3808
same,C1QTNF1 expression fc,"Refseq NM_198594.1, cultured human skeletal muscle",0.7696
same,fc of SERPINB8 (expression array),Refseq NM_198833.1,1.016
same,SEMA4B expression fc,"Refseq NM_198925.1, cultured human skeletal muscle",0.1542
same,C9orf169 expression fc,"Refseq NM_199001.1, cultured human skeletal muscle",−0.05213
same,T1560 expression fc,Refseq NM_199048.1,0.02012
same,XAF1 expression fc,"Refseq NM_199139.1, cultured human skeletal muscle",0.6222
same,SAA1 expression fc,"Refseq NM_199161.1, cultured human skeletal muscle",0.2569
same,C20orf117 fc,Refseq NM_199181.2,−0.5322
same,fc of TMEM189-UBE2V1 (expression array),Refseq NM_199203.1,0.06378
same,DGKA expression fc,"Refseq NM_201554.1, cultured human skeletal muscle",0.1014
same,fc of ZMYM3 (expression array),Refseq NM_201599.1,−0.01297
same,FBXO33 expression fc,Refseq NM_203301.1,0.2162
same,SYNJ1 expression fc,Refseq NM_203446.1,−0.07515
same,fc of CMPK2 (expression array),Refseq NM_207315.2,1.351
same,CYP4V2 fc,Refseq NM_207352.2,−0.4989
same,fc of C15orf52 (expression array),Refseq NM_207380.1,−0.2956
same,FLJ45337 expression fc,Refseq NM_207465.1,−0.2461
same,ATP2B1 fc,Refseq NM_001001323.1,−0.7039
same,FLJ45139 expression fc,Refseq NM_001001692.1,0.1009
same,OR2T34 expression fc,Refseq NM_001001821.1,−0.05408
same,fc of GPM6B (expression array),Refseq NM_001001995.1,−1.119
same,NT5C1B expression fc,Refseq NM_001002006.1,−0.03655
same,fc of NT5C3 (expression array),Refseq NM_001002010.1,1.882
same,RAB11FIP1 expression fc,Refseq NM_001002814.1,−0.4765
same,fc of LEPR (expression array),Refseq NM_001003679.1,−0.5494
same,ZNF705A expression fc,Refseq NM_001004328.1,−0.06059
same,HIST2H3A expression fc,Refseq NM_001005464.2,−0.05203
same,GBA fc,Refseq NM_001005742.1,0.289
same,SIAH1 expression fc,Refseq NM_001006610.1,−0.0793
same,OPTN fc,Refseq NM_001008213.1,−0.5727
same,SLC7A2 expression fc,"Refseq NM_001008539.2, cultured human skeletal muscle",−0.1055
same,CXCR4 expression fc,Refseq NM_001008540.1,−0.0521
same,fc of CLSTN1 (expression array),Refseq NM_001009566.1,−0.2768
same,PRAMEF4 expression fc,Refseq NM_001009611.1,0.0423
same,C6orf191 expression fc,Refseq NM_001010876.1,−0.05752
same,PRAMEF6 expression fc,Refseq NM_001010889.2,−0.06189
same,PRAMEF9 expression fc,Refseq NM_001010890.1,−0.07265
same,PRAMEF8 expression fc,Refseq NM_001012276.1,0.1662
same,PRAMEF7 expression fc,Refseq NM_001012277.1,0.106
same,fc of MYPOP (expression array),Refseq NM_001012643.2,−0.03552
same,PRAMEF5 expression fc,Refseq NM_001013407.1,0.1054
same,HNRNPCL1 expression fc,Refseq NM_001013631.1,−0.1035
same,RFPL4B expression fc,Refseq NM_001013734.2,−0.1031
same,ODF3B fc,Refseq NM_001014440.2,0.4296
same,DNAJC25 expression fc,Refseq NM_001015882.2,−0.5072
same,KCNK2 fc,Refseq NM_001017425.2,0.2137
same,CCDC58 expression fc,Refseq NM_001017928.2,0.07678
same,fc of ATP6AP1L (expression array),Refseq NM_001017971.1,0.02803
same,SH3PXD2B fc,Refseq NM_001017995.1,−0.01555
same,ZBTB16 expression fc,"Refseq NM_001018011.1, cultured human skeletal muscle",0.4921
same,fc of SERBP1 (expression array),Refseq NM_001018069.1,−1.179
same,SOD2 expression fc,"Refseq NM_001024466.1, cultured human skeletal muscle",1.532
same,fc of RUNX2 (expression array),Refseq NM_001024630.2,0.05524
same,CLK1 expression fc,Refseq NM_001024646.1,0.0752
same,fc of TGFBR2 (expression array),Refseq NM_001024847.1,0.1743
same,TSPAN4 fc,Refseq NM_001025235.1,−0.1169
same,fc of RFX5 (expression array),Refseq NM_001025603.1,−0.06023
same,PSRC1 fc,Refseq NM_001032290.1,−0.4871
same,OAS1 expression fc,"Refseq NM_001032409.1, cultured human skeletal muscle",1.453
same,ENTPD8 expression fc,Refseq NM_001033113.1,0.03523
same,RHOT1 fc,Refseq NM_001033566.1,0.3308
same,CYFIP2 fc,Refseq NM_001037333.1,−0.633
same,fc of PHYH (expression array),Refseq NM_001037537.1,−0.5757
same,fc of EFEMP1 (expression array),Refseq NM_001039348.1,−0.2077
same,PRAMEF10 expression fc,Refseq NM_001039361.1,0.008756
same,ETNK1 expression fc,Refseq NM_001039481.1,0.06444
same,LOC440053 expression fc,Refseq NM_001039615.1,−0.09982
same,CBLN3 fc,Refseq NM_001039771.2,0.1543
same,HEY1 expression fc,Refseq NM_001040708.1,−0.04271
same,fc of UHRF1 (expression array),Refseq NM_001048201.1,−1.034
same,DBNDD2 expression fc,Refseq NM_001048223.1,0.2257
same,NCOR2 fc,Refseq NM_001077261.1,−0.2241
same,fc of NFKB2 (expression array),Refseq NM_001077493.1,0.2202
same,fc of SLC29A1 (expression array),Refseq NM_001078174.1,−1.034
same,DYNC2H1 expression fc,Refseq NM_001080463.1,0.04558
same,PRAMEF12 expression fc,Refseq NM_001080830.1,0.1269
same,FRG2B expression fc,Refseq NM_001080998.1,0.1315
same,DEFB103A expression fc,Refseq NM_001081551.2,0.06581
same,CPSF4 fc,Refseq NM_001081559.1,−0.2674
same,fc of GPD2 (expression array),Refseq NM_001083112.1,1.197
same,fc of GPR1 (expression array),Refseq NM_001098199.1,0.2201
same,HLA-F expression fc,"Refseq NM_001098479.1, cultured human skeletal muscle",0.9368
same,RFPL3 expression fc,Refseq NM_001098535.1,−0.06033
same,PRR4 expression fc,Refseq NM_001098538.1,0.1606
same,FAM156B fc,Refseq NM_001099684.1,−0.1712
